Reference: paper PMC9722916

Target: T1, rat TRPV2, C-terminally fused to GFP and a His8-tag (rat), Q9WUD2
T1 chain: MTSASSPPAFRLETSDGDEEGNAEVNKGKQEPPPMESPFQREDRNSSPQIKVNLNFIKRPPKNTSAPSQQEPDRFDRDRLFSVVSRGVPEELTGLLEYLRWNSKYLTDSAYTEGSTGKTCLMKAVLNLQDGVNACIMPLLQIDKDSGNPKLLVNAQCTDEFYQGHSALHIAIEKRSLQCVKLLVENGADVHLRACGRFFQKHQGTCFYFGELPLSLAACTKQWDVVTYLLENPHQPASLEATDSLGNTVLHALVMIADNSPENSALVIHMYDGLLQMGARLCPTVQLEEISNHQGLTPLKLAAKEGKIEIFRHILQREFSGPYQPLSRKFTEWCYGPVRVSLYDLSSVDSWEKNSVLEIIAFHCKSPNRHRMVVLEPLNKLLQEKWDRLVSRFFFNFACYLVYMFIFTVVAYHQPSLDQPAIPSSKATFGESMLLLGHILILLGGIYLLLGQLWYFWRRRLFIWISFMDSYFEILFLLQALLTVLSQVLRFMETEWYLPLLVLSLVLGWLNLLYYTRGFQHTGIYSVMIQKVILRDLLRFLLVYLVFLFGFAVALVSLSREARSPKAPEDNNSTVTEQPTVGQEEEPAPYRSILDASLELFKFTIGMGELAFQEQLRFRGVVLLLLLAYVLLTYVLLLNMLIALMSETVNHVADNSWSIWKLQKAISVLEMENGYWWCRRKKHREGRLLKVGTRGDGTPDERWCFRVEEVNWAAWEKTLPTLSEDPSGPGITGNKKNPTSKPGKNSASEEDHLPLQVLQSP
Assay: cryo-EM structure; purified rat TRPV2 in GDN (20 mM Tris 8.0, 150 mM NaCl, 0.4 mg/ml GDN), incubated with C16 (50 uM) and probenecid (2 mM), alone or in combination, at room temperature for 15 min; C4 symmetry (C16 and probenecid structures), C1 symmetry (C16+probenecid structures)
Settings: remark: other sources report otherwise

- stoichiometry N: 4
B1: rat TRPV2, C-terminally fused to GFP and a His8-tag, Q9WUD2 1-761 (natural protein)
chain: MTSASSPPAFRLETSDGDEEGNAEVNKGKQEPPPMESPFQREDRNSSPQIKVNLNFIKRPPKNTSAPSQQEPDRFDRDRLFSVVSRGVPEELTGLLEYLRWNSKYLTDSAYTEGSTGKTCLMKAVLNLQDGVNACIMPLLQIDKDSGNPKLLVNAQCTDEFYQGHSALHIAIEKRSLQCVKLLVENGADVHLRACGRFFQKHQGTCFYFGELPLSLAACTKQWDVVTYLLENPHQPASLEATDSLGNTVLHALVMIADNSPENSALVIHMYDGLLQMGARLCPTVQLEEISNHQGLTPLKLAAKEGKIEIFRHILQREFSGPYQPLSRKFTEWCYGPVRVSLYDLSSVDSWEKNSVLEIIAFHCKSPNRHRMVVLEPLNKLLQEKWDRLVSRFFFNFACYLVYMFIFTVVAYHQPSLDQPAIPSSKATFGESMLLLGHILILLGGIYLLLGQLWYFWRRRLFIWISFMDSYFEILFLLQALLTVLSQVLRFMETEWYLPLLVLSLVLGWLNLLYYTRGFQHTGIYSVMIQKVILRDLLRFLLVYLVFLFGFAVALVSLSREARSPKAPEDNNSTVTEQPTVGQEEEPAPYRSILDASLELFKFTIGMGELAFQEQLRFRGVVLLLLLAYVLLTYVLLLNMLIALMSETVNHVADNSWSIWKLQKAISVLEMENGYWWCRRKKHREGRLLKVGTRGDGTPDERWCFRVEEVNWAAWEKTLPTLSEDPSGPGITGNKKNPTSKPGKNSASEEDHLPLQVLQSP
